Target: T1, OlyA6 mutant E69A (Pleurotus ostreatus, UniProt P83467 1-138, E69A)
T1 sequence: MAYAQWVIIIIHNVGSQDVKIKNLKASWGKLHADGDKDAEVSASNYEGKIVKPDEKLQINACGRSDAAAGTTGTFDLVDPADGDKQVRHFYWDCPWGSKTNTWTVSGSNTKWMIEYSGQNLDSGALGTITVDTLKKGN
Assay: cell-based or functional assay

B1: Δ48PlyB (pleurotolysin B) (domain or fragment, Pleurotus ostreatus, UniProt Q5W9E8 49-523, looked up)
chain: SQAGDTLNDVIQDPTRRNKLINDNNLLKGIIMGRDGPVPSSRELIVRPDTLRAIINNRATIETTTMEAEFTETLMESNYNSASVKVSAPFITANSEYSESSSFKNTETEKSMYTSSRYLFPQGRIDFTTPDSGFDDVIKLSPQFTSGVQAALAKATGTEKREALQNLFQEYGHVFRTKVHIGGVLSAHTMETFSRSENETEVKQDVKAGLEGAVKGWGGGATAGHGNTQGTITTSQNRKLNVKYIVNGGDYTKIQNTEEWVASTNQSEHWRVIEVTEVTAVADLLPQPIRGQVKDLLKPLLGKWVDVEKVPGLESLPVSVYRPKGAIPAGWFWLGDTADASKALLVKPTLPARSGRNPALTSLHQGSGMTEQPFVDLPQYQYLSTYFGSFAHDTPPGSTLRGLRPDHVLPGRYEMHGDTISTAVYVTRPVDVPFPEDECFDLKSLVRVKLPGSGNPPKPRSALKKSMVLFDSGEK
  hazard ratio against buffer, Kaplan-Meier survival of Colorado potato beetle larvae on E69A/PlyB-treated leaf discs: 2.76
